In publication PMC5467213, “Architecture of the RNA polymerase II-Paf1C-TFIIS transcription elongation complex” (Nature Communications, 2017):

T1: Ctr9 (full length, C-terminal hexahistidine tag) (S. cerevisiae, UniProt P89105 1-1077)
T1 construct: Ctr9, S. cerevisiae, full length, amplified from genomic DNA, in pET24b; source: E. coli BL21 CodonPlus(DE3)RIL, coexpressed with the other subunits; in lysate and purified as part of Paf1C; not shown: His6, C-terminal, kept
T1 sequence (looked up): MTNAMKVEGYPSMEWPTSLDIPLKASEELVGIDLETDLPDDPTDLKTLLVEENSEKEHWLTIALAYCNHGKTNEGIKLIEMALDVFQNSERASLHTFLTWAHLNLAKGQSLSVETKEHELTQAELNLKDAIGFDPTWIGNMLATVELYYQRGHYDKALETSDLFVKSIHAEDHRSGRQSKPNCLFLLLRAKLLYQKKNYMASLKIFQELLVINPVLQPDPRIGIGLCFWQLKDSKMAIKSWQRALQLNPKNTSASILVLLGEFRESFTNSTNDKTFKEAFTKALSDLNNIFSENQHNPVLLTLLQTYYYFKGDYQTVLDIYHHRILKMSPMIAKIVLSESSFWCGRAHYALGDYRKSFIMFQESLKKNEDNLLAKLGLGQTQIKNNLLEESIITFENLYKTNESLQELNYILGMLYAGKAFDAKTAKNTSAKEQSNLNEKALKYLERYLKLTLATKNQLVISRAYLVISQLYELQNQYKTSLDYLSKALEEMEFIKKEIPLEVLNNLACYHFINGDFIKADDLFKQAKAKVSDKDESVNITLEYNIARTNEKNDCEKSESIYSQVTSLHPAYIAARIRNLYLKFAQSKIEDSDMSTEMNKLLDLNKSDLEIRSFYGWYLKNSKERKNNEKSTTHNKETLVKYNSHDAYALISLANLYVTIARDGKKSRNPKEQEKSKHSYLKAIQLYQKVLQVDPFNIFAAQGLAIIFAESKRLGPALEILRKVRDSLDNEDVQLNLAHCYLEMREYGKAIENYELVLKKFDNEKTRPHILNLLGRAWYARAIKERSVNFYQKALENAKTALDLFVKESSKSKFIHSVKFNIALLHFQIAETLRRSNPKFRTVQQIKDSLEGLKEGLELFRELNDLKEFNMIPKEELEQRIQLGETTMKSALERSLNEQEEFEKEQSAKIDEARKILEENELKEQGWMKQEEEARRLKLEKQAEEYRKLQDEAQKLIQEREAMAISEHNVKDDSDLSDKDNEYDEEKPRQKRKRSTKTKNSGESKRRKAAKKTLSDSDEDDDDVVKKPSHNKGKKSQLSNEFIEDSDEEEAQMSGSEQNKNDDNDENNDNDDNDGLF

T2: Ctr9-ΔC913 (S. cerevisiae, UniProt P89105 1-913)
T2 construct: Ctr9, S. cerevisiae, variant lacking 164 amino acids at its C terminus (Ctr9-ΔC913); also called Ctr9 (in the Pol II-Paf1C-TFIIS EC); source: E. coli BL21 CodonPlus(DE3)RIL, coexpressed with the other subunits; in lysate and purified as part of Paf1C-Ctr9-ΔC913
T2 sequence (looked up): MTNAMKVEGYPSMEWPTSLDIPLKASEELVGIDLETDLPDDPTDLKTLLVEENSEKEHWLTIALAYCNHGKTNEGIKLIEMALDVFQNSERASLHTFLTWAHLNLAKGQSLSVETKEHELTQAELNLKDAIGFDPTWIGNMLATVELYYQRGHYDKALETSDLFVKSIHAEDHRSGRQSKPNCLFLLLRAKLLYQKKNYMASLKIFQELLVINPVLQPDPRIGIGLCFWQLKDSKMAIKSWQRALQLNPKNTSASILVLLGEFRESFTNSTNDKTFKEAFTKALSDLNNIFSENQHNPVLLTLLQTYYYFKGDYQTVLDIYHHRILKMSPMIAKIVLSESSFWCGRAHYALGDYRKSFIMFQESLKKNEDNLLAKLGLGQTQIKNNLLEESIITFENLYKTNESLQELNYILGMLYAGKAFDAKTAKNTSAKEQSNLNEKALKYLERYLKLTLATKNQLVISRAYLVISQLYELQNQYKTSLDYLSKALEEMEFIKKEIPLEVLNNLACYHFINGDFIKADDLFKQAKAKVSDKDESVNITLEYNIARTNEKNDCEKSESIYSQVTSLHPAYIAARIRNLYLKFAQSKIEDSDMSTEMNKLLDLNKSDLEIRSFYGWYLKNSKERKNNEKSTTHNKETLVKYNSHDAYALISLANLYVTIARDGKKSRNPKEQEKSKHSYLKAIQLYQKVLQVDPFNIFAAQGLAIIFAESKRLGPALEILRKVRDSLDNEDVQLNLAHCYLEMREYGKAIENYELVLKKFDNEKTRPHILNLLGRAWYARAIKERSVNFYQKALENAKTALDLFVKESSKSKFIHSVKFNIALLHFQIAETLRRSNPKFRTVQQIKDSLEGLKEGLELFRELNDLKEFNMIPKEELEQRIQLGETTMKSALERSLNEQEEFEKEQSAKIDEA

B1: Leo1 (natural protein, S. cerevisiae, UniProt P38439 1-464, looked up)
chain: MSSESPQDQPQKEQISNNVGVTTNSTSNEETSRSQDDNVKEVNGNDDTKEEEQEEDAELDDLFGDDNDDDDDDDVKKSETEKSDSDSDEDDEGENINHRSRHRESLGLDDDEAEEQAMYTRKFYGEDANNFSDQDETTHTFKEENVELVRHIIPSKANVNETASHNEIFYARIPNFLTIDPIPFDPPSFEAKVNERASNSASREDQLDDRLIDENTVRWRYSRDKDQHVFKESNTQIVQWSDGTYSLKVGEECTDILVNDTSNTFLTVSHDQQELIQCYEGGEIKKTLMFIPTSTNSKIHQKLSKAVIRRNQRQSKGPGTYIVSMDPEVEKKELERKQSQILRDRRRRQLKEKEKQESPDAAFETGFRKQNSPTTYGASRRNEYEEDDFLVDDDEEEEAAFDDEEDDNEEEEEEEDADEENASRLRNLKREGAAMYREEEEEEKDRSETKRRRVAVIEDDEDED
notes: Leo1, S. cerevisiae, open reading frame chemically synthesized (codon-optimised), in pCDFDuet-1; source: E. coli BL21 CodonPlus(DE3)RIL, coexpressed with the other subunits; in lysate and purified as part of Paf1C
B2: Rpb11 (Pol II subunit) (natural protein, yeast)
chain: MNAPDRFELFLLGEGESKLKIDPDTKAPNAVVITFEKEDHTLGNLIRAELLNDRKVLFAAYKVEHPFFARFKLRIQTTEGYDPKDALKNACNSIINKLGALKTNFETEWNLQTLAADDAF
notes: Rpb11, subunit of yeast Pol II; source: part of purified Pol II
B3: Cdc73 (natural protein, S. cerevisiae, UniProt Q06697 1-393, looked up)
chain: MANSLDRLREHLKNGDKLVLKNNEGQSTDDITKATMVETLSSDGSTQDSFPLNEETEIEIDGSLVQLRIIVHCWMNKDSSAADYLADCQNKQLTNVSFLQRTDLINWLSGNTESSQYLKAPGQKGETSDKVDIENKTLAGELSTVKSTTSASLENDSEVSDPVVVETMKHERILVDHNSALRGAKPINFGYLIKDAELKLVQSIKGSLRGSKLPPGHKGAHGRISKTNGSSGGPRKDPIILIPSAASSILTVANIKQFLLESKYVNPRNLPSVPNGLVNIEKNFERISRPIRFIIVDNTRMFTKPEYWDRVVAIFTTGHTWQFNNYQWNSPQELFQRCKGYYFHFAGDSVPQHVQQWNVEKVELDKNKRFKDVEVVRYFWHSLEKELISRGYR
notes: Cdc73, S. cerevisiae, full length, amplified from genomic DNA; source: E. coli BL21 CodonPlus(DE3)RIL, coexpressed with the other subunits; in lysate and purified as part of Paf1C
B4: Rpb3 (Pol II subunit) (natural protein, yeast)
chain: MSEEGPQVKIREASKDNVDFILSNVDLAMANSLRRVMIAEIPTLAIDSVEVETNTTVLADEFIAHRLGLIPLQSMDIEQLEYSRDCFCEDHCDKCSVVLTLQAFGESESTTNVYSKDLVIVSNLMGRNIGHPIIQDKEGNGVLICKLRKGQELKLTCVAKKGIAKEHAKWGPAAAIEFEYDPWNKLKHTDYWYEQDSAKEWPQSKNCEYEDPPNEGDPFDYKAQADTFYMNVESVGSIPVDQVVVRGIDTLQKKVASILLALTQMDQDKVNFASGDNNTASNMLGSNEDVMMTGAEQDPYSNASQMGNTGSGGYDNAW
notes: Rpb3, subunit of yeast Pol II; source: part of purified Pol II

Experiments:
[1] = biological target: T1, Ctr9 (full length, C-terminal …); assay: co-purification after coexpression (Ni-NTA, cation exchange, SEC); subunits coexpressed in E. coli from three vectors, cells colysed; Ni-NTA (hexahistidine tag on Ctr9), HiTrap SP cation exchange, Superose 6 size exclusion; SDS-PAGE, subunits confirmed by mass spectrometry; details: partners not purified
Rpb2 (Pol II subunit) = biological target: T3, Rpb2 (Pol II subunit) (yeast, UniProt P08518 1-1224); assay: cross-linking; Pol II-Paf1C-TFIIS EC after SEC, 425 μg/ml, 0.5 mM BS3, 30 min, 30 °C; trypsin, Orbitrap Fusion LC-MS/MS, pLink, FDR 1%; details: both partners purified
T3 construct: Rpb2, subunit of yeast Pol II; source: part of purified Pol II

Ctr9-ΔC913 = biological target: T2, Ctr9-ΔC913; assay: as above; details: both partners purified
Rtf1 = biological target: T4, Rtf1 (S. cerevisiae, UniProt P53064 1-558); assay: as above; details: both partners purified
T4 construct: Rtf1, S. cerevisiae, full length, amplified from genomic DNA; source: E. coli BL21 CodonPlus(DE3)RIL, coexpressed with Cdc73; in lysate and purified as part of Paf1C

Rpb1 (Pol II subunit) = biological target: T5, Rpb1 (Pol II subunit) (yeast, UniProt P04050 1-1733); assay: as above; details: both partners purified
T5 construct: Rpb1, largest subunit of yeast Pol II; source: part of purified Pol II

Cdc73 = biological target: B3; assay: as above; details: both partners purified

T3 sequence (P08518 whole entry, the tested form may be a part): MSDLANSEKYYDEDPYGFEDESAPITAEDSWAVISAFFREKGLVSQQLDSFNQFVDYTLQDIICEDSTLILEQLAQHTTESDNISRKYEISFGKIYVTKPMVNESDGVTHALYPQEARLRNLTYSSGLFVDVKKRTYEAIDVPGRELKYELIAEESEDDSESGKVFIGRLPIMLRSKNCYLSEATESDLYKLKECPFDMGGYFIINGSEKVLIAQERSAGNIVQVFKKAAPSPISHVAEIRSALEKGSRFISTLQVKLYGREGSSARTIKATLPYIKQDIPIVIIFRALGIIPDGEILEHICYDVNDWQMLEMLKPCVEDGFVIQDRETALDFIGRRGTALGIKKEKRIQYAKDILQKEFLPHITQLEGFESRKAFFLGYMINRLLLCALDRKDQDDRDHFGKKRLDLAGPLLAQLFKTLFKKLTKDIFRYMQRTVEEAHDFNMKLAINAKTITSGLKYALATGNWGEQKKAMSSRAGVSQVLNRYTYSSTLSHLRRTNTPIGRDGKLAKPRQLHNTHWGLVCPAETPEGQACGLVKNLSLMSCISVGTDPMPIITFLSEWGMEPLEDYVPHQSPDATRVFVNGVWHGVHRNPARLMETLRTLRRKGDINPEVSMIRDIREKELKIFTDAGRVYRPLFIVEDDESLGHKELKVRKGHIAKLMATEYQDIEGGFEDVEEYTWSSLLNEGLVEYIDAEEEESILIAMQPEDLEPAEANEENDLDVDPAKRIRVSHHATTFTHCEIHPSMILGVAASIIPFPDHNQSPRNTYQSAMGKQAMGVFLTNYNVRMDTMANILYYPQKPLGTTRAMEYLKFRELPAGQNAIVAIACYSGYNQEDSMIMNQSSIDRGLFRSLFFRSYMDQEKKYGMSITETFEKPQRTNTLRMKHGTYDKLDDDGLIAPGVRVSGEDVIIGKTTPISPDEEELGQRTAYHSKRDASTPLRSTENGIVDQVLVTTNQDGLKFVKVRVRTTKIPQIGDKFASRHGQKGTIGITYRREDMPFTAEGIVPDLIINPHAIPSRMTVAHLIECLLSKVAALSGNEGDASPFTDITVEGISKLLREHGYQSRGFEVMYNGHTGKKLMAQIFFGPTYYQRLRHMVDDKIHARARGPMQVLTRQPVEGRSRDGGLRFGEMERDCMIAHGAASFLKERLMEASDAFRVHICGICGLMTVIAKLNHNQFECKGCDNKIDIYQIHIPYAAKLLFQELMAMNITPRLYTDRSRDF
T4 sequence (P53064 whole entry): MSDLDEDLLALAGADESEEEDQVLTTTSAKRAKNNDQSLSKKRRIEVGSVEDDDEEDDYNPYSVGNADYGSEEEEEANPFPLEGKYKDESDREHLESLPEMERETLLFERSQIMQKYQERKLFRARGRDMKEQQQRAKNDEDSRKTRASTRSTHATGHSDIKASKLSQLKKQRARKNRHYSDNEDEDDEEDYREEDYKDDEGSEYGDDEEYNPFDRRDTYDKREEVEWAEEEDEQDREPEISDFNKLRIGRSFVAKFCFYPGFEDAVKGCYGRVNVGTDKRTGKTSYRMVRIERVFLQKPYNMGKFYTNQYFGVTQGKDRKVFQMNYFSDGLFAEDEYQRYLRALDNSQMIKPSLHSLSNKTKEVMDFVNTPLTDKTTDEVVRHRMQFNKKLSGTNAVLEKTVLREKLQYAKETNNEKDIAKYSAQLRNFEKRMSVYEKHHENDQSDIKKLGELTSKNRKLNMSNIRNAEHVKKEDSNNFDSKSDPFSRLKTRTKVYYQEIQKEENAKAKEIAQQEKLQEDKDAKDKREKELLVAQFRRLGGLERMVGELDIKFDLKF
T5 sequence (P04050 whole entry): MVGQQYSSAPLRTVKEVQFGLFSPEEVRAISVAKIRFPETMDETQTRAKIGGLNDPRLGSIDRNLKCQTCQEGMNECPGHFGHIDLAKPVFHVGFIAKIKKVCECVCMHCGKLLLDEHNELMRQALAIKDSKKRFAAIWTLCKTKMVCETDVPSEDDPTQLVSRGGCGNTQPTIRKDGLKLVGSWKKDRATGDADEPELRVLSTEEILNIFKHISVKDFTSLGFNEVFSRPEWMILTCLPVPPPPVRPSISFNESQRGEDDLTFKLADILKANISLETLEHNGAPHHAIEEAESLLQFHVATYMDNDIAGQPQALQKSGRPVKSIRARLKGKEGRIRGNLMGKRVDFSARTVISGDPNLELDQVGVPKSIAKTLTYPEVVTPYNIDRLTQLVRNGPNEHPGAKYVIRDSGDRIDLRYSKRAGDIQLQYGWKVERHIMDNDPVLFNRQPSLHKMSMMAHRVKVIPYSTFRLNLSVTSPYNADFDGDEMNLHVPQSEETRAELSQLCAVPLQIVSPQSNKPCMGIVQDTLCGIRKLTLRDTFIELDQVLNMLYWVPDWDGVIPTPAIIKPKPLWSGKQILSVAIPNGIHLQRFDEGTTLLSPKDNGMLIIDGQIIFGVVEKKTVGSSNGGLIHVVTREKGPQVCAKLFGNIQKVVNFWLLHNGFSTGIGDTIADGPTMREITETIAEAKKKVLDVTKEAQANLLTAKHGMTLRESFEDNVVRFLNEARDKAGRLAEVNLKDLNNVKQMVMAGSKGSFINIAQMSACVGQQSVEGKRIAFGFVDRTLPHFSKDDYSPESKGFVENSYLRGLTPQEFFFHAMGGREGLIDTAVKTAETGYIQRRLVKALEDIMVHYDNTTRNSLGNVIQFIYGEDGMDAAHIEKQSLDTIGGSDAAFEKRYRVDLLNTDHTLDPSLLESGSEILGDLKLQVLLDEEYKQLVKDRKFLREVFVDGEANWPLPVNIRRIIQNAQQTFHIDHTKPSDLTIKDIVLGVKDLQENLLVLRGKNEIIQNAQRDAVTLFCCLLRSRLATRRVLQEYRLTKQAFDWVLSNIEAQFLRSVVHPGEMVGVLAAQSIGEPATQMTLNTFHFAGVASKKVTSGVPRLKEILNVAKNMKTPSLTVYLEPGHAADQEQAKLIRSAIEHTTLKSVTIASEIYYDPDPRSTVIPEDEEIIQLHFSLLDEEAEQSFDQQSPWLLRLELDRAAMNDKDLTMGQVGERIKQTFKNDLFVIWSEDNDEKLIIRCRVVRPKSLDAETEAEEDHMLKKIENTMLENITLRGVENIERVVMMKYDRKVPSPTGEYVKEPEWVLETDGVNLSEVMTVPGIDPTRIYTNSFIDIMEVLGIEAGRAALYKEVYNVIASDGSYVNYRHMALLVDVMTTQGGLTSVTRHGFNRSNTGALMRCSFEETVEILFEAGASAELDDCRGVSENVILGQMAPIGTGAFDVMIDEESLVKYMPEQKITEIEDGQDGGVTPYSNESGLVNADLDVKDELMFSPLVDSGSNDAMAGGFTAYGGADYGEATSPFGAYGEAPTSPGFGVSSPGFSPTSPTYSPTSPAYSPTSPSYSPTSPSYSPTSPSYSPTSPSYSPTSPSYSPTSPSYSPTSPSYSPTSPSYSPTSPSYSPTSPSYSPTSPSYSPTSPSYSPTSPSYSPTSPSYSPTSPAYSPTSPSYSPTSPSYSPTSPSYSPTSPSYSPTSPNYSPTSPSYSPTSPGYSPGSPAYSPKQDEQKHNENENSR

| binding result [1] | binding result (Rpb2 (Pol II subunit)) | binding result (Ctr9-ΔC913) | binding result (Rtf1) | binding result (Rpb1 (Pol II subunit)) | binding result (Cdc73) | Binder |
| --- | --- | --- | --- | --- | --- | --- |
| binds | binds | binds | binds | binds | – | B1 |
| – | – | – | – | – | binds | B2 |
| binds | binds | binds | – | – | – | B3 |
| – | – | – | – | – | binds | B4 |
